The text below walks through data of US12384831 (SHINSHU UNIVERSITY, dated 2025).

The assay addresses recombinant human LOX-1 (61-273aa) (human, UniProt P78380 61-273). The assay is described as follows: sandwich ELISA, LOX-1 immobilized, detection by anti-ApoA I antibody. The protocol: The recombinant human LOX-1 (61-273aa) or protein Dectin-1 belonging to the same family with LOX-1 for the contrast reference was immobilized on the ELISA plate at 4° C. overnight. After washing with PBS, it was blocked by HEPES buffer including 3% BSA (10 mM HEPES, 150 mM NaCl, pH7.4). After washing PBS three times, oxidized HDL, HDL, oxidized LDL and LDL were respectively added thereto, and they were incubated. After washing with PBS, chicken anti-ApoA I monoclonal antibody (chicken monoclonal […]) or HRP-labeled anti-ApoA I polyclonal antibody (sheep polyclonal […]) was added thereto. When chicken anti-ApoA I monoclonal antibody was used, chicken anti-ApoA I monoclonal antibody was added thereto and reacted for 1 hour at room temperature and then it was washed with PBS and secondary antibody: HRP-labeled Donkey anti-chicken IgY was added and incubated for 1 hour at room temperature.
After the antibody response, it was washed with PBS for 5 times. And then, TMB solution was added onto the plate and made it react them at room temperature. After stopping the reaction by 2M sulfuric acid, the absorbency at 450 nm was determined by using SpectraMax 340PC384 (Molecular Devices) to detect the oxidized HDL bound. […]

B1: fusion protein of Fv-type anti-LOX-1 antibody (#10-1) and human ApoA I (31-267aa) (other)
chain: EVKLLESGGGLVQPGGSLKLSCAVSGFDFSRYWMSWVRQAPGKGLEWIGEINPDSSTINFTPSLKDKFIVSRDNAKNTLYLQMSKVRSEDTALYYCARNDVLLGAMDYWGQGTSVTVSSGGGGSGGGGSGGGGSDVLMTQTPLSLPVSLGDQASISCRSSQTIVHSNGKTYLEWYLQKPGQSPKLLIYKVSNRFSGVPDRFSGSGSGTDFTLKISRVEAEDLGVYYCFQGSHVPLTFGAGTKLELKGGGGSGGGGSGGGGSPWDRVKDLATVYVDVLKDSGRDYVSQFEGSALGKQLNLKLLDNWDSVTSTFSKLREQLGPVTQEFWDNLEKETEGLRQEMSKDLEEVKAKVQPYLDDFQKKWQEEMELYRQKVEPLRAELQEGARQKLHELQEKLSPLGEEMRDRARAHVDALRTHLAPYSDELRQRLAARLEALKENGGARLAEYHAKATEHLSTLSEKAKPALEDLRQGLLPVLESFKVSFLSALEEYTKKLNTQ
notes: Expressed from the pEF6-V5-His vector in Expi293 cells, secreted and His-purified; also called chimeric protein; artificial recombinant protein
Consider B1, for which the binding result is given as “binds”.
